Sequences and labels used below:
B1: Azoarcus group I ribozyme (parent)
chain: GUGCCUUGCGCCGGGAAACCACGCAAGGGAUGGUGUCAAAUUCGGCGAAACCUAAGCGCCCGCCCGGGCGUAUGGCAACGCCGAGCCAAGCUUCGGCGCCUGCGCCGAUGAAGGUGUAGAGACUAGACGGCACCCACCUAAGGCAAACGCUAUGGUGAAGGCAUAGUCCAGGGAGUGGCGAAAGUCACACAAACCGG

The data set covers variants of B1. Kind of data set: reverse-splicing fitness (ratio to wild type); higher = more active; in vitro selection; Mg2+ level not given. The gist of the method: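 An in vitro group I ribozyme library with randomized positions was T7-transcribed and gel-purified. In triplicate, 10 pmol RNA in EPPS pH 7.5 was reacted with 50 pmoles of a 30-nt RNA substrate for 1 h at 37 °C across several added MgCl2 levels (1–48 mM), then stopped with EDTA. Products were reverse transcribed from a substrate-complementary primer, PCR-amplified and sequenced (HiSeq 4000). Fitness is a variant's read proportion after selection over that before, normalised to wild type.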
For GUGCCUUGCGCCGGGAAACCACGCAAGGGAUGGUGUCAAAUUCGGCGAAACCUAAGCGCCCGCCCGGGCGUAUGGCAACGCGGAGCCAAGCUUCGGCGCCUGCGCCGAUGUAGGUGUAGUGACUAGACGGCACCCACCUAAGGCAAACGAUAUGGUGAAGGCAUAGUCCAGGGAGGGGCGAAAGUCACACAAACCGG, the reverse-splicing fitness worked out at 0.00383.
To GUGCCUUGCGCCGGGAAACCACGCAAGGGAUGGUGUCAAAUUCGGCGAAACCUAAGCGCCCGCCCGGGCGUAUGGCAACGCGGAGCCAAGCUUCGGCGCCUGCGCCGAUGUAGGUGUAGUGACUAGACGGCACCCACCUAAGGCAAACGAUAUGGUGAAGGCAUAGUCCAGGGAGCGGCGAAAGUCACACAAACCGG belongs 0.00858.
For the variant GUGCCUUGCGCCGGGAAACCACGCAAGGGAUGGUGUCAAAUUCGGCGAAACCUAAGCGCCCGCCCGGGCGUAUGGCAACGCGGAGCCAAGCUUCGGCGCCUGCGCCGAUGUAGGUGUAGUGACUAGACGGCACCCACCUAAGGCAAACGAUAUGGUGAAGGCAUAGUCCAGGGAGAGGCGAAAGUCACACAAACCGG, the reverse-splicing fitness worked out at 0.00758.
Consider GUGCCUUGCGCCGGGAAACCACGCAAGGGAUGGUGUCAAAUUCGGCGAAACCUAAGCGCCCGCCCGGGCGUAUGGCAACGCGGAGCCAAGCUUCGGCGCCUGCGCCGAUGUAGGUGUAGUGACUAGACGGCACCCACCUAAGGCAAACGGUAUGGUGAAGGCAUAGUCUAGGGAGCGGCGAAAGUCACACAAACCGG, for which the reverse-splicing fitness is 0.00541.
On to GUGCCUUGCGCCGGGAAACCACGCAAGGGAUGGUGUCAAAUUCGGCGAAACCUAAGCGCCCGCCCGGGCGUAUGGCAACGCGGAGCCAAGCUUCGGCGCCUGCGCCGAUGUAGGUGUAGUGACUAGACGGCACCCACCUAAGGCAAACGGUAUGGUGAAGGCAUAGUCUAGGGAGGGGCGAAAGUCACACAAACCGG, for which the reverse-splicing fitness came out at 0.00257.
With GUGCCUUGCGCCGGGAAACCACGCAAGGGAUGGUGUCAAAUUCGGCGAAACCUAAGCGCCCGCCCGGGCGUAUGGCAACGCGGAGCCAAGCUUCGGCGCCUGCGCCGAUGUAGGUGUAGUGACUAGACGGCACCCACCUAAGGCAAACGGUAUGGUGAAGGCAUAGUCUAGGGAGAGGCGAAAGUCACACAAACCGG, the reverse-splicing fitness was 0.00329.
Take GUGCCUUGCGCCGGGAAACCACGCAAGGGAUGGUGUCAAAUUCGGCGAAACCUAAGCGCCCGCCCGGGCGUAUGGCAACGCGGAGCCAAGCUUCGGCGCCUGCGCCGAUGUAGGUGUAGUGACUAGACGGCACCCACCUAAGGCAAACGGUAUGGUGAAGGCAUAGUCAAGGGAGGGGCGAAAGUCACACAAACCGG: the reverse-splicing fitness was 0.00291.
Regarding GUGCCUUGCGCCGGGAAACCACGCAAGGGAUGGUGUCAAAUUCGGCGAAACCUAAGCGCCCGCCCGGGCGUAUGGCAACGCGGAGCCAAGCUUCGGCGCCUGCGCCGAUGUAGGUGUAGUGACUAGACGGCACCCACCUAAGGCAAACGGUAUGGUGAAGGCAUAGUCAAGGGAGCGGCGAAAGUCACACAAACCGG, the reverse-splicing fitness turned out to be 0.00545.
In the case of GUGCCUUGCGCCGGGAAACCACGCAAGGGAUGGUGUCAAAUUCGGCGAAACCUAAGCGCCCGCCCGGGCGUAUGGCAACGCGGAGCCAAGCUUCGGCGCCUGCGCCGAUGUAGGUGUAGUGACUAGACGGCACCCACCUAAGGCAAACGGUAUGGUGAAGGCAUAGUCAAGGGAGAGGCGAAAGUCACACAAACCGG, the reverse-splicing fitness was found to be 0.00533.
To GUGCCUUGCGCCGGGAAACCACGCAAGGGAUGGUGUCAAAUUCGGCGAAACCUAAGCGCCCGCCCGGGCGUAUGGCAACGCGGAGCCAAGCUUCGGCGCCUGCGCCGAUGUAGGUGUAGUGACUAGACGGCACCCACCUAAGGCAAACGAUAUGGUGAAGGCAUAGUCUAGGGAGAGGCGAAAGUCACACAAACCGG belongs 0.00604; to GUGCCUUGCGCCGGGAAACCACGCAAGGGAUGGUGUCAAAUUCGGCGAAACCUAAGCGCCCGCCCGGGCGUAUGGCAACGCGGAGCCAAGCUUCGGCGCCUGCGCCGAUGUAGGUGUAGUGACUAGACGGCACCCACCUAAGGCAAACGAUAUGGUGAAGGCAUAGUCUAGGGAGGGGCGAAAGUCACACAAACCGG, 0.00236.
To GUGCCUUGCGCCGGGAAACCACGCAAGGGAUGGUGUCAAAUUCGGCGAAACCUAAGCGCCCGCCCGGGCGUAUGGCAACGCGGAGCCAAGCUUCGGCGCCUGCGCCGAUGUAGGUGUAGUGACUAGACGGCACCCACCUAAGGCAAACGAUAUGGUGAAGGCAUAGUCUAGGGAGCGGCGAAAGUCACACAAACCGG belongs 0.00482.
Turning to GUGCCUUGCGCCGGGAAACCACGCAAGGGAUGGUGUCAAAUUCGGCGAAACCUAAGCGCCCGCCCGGGCGUAUGGCAACGCGGAGCCAAGCUUCGGCGCCUGCGCCGAUGUAGGUGUAGUGACUAGACGGCACCCACCUAAGGCAAACGGUAUGGUGAAGGCAUAGUCGAGGGAGGGGCGAAAGUCACACAAACCGG, the reverse-splicing fitness amounted to 0.003.
On to GUGCCUUGCGCCGGGAAACCACGCAAGGGAUGGUGUCAAAUUCGGCGAAACCUAAGCGCCCGCCCGGGCGUAUGGCAACGCGGAGCCAAGCUUCGGCGCCUGCGCCGAUGUAGGUGUAGUGACUAGACGGCACCCACCUAAGGCAAACGGUAUGGUGAAGGCAUAGUCGAGGGAGCGGCGAAAGUCACACAAACCGG, for which the reverse-splicing fitness is 0.00362.
With GUGCCUUGCGCCGGGAAACCACGCAAGGGAUGGUGUCAAAUUCGGCGAAACCUAAGCGCCCGCCCGGGCGUAUGGCAACGCGGAGCCAAGCUUCGGCGCCUGCGCCGAUGUAGGUGUAGUGACUAGACGGCACCCACCUAAGGCAAACGGUAUGGUGAAGGCAUAGUCGAGGGAGAGGCGAAAGUCACACAAACCGG, the reverse-splicing fitness came out at 0.00513.
To GUGCCUUGCGCCGGGAAACCACGCAAGGGAUGGUGUCAAAUUCGGCGAAACCUAAGCGCCCGCCCGGGCGUAUGGCAACGCGGAGCCAAGCUUCGGCGCCUGCGCCGAUGUAGGUGUAGUGACUAGACGGCACCCACCUAAGGCAAACGGUAUGGUGAAGGCAUAGUCCAGGGAGAGGCGAAAGUCACACAAACCGG belongs 0.00389; to GUGCCUUGCGCCGGGAAACCACGCAAGGGAUGGUGUCAAAUUCGGCGAAACCUAAGCGCCCGCCCGGGCGUAUGGCAACGCGGAGCCAAGCUUCGGCGCCUGCGCCGAUGUAGGUGUAGUGACUAGACGGCACCCACCUAAGGCAAACGGUAUGGUGAAGGCAUAGUCCAGGGAGCGGCGAAAGUCACACAAACCGG, 0.00683; to GUGCCUUGCGCCGGGAAACCACGCAAGGGAUGGUGUCAAAUUCGGCGAAACCUAAGCGCCCGCCCGGGCGUAUGGCAACGCGGAGCCAAGCUUCGGCGCCUGCGCCGAUGUAGGUGUAGUGACUAGACGGCACCCACCUAAGGCAAACGAUAUGGUGAAGGCAUAGUCGAGGGAGCGGCGAAAGUCACACAAACCGG, 0.00406.
With GUGCCUUGCGCCGGGAAACCACGCAAGGGAUGGUGUCAAAUUCGGCGAAACCUAAGCGCCCGCCCGGGCGUAUGGCAACGCGGAGCCAAGCUUCGGCGCCUGCGCCGAUGUAGGUGUAGUGACUAGACGGCACCCACCUAAGGCAAACGAUAUGGUGAAGGCAUAGUCGAGGGAGAGGCGAAAGUCACACAAACCGG, the reverse-splicing fitness turned out to be 0.00827.
Take GUGCCUUGCGCCGGGAAACCACGCAAGGGAUGGUGUCAAAUUCGGCGAAACCUAAGCGCCCGCCCGGGCGUAUGGCAACGCGGAGCCAAGCUUCGGCGCCUGCGCCGAUGUAGGUGUAGUGACUAGACGGCACCCACCUAAGGCAAACGAUAUGGUGAAGGCAUAGUCGAGGGAGGGGCGAAAGUCACACAAACCGG: the reverse-splicing fitness is 0.00223.
To GUGCCUUGCGCCGGGAAACCACGCAAGGGAUGGUGUCAAAUUCGGCGAAACCUAAGCGCCCGCCCGGGCGUAUGGCAACGCGGAGCCAAGCUUCGGCGCCUGCGCCGAUGUAGGUGUAGUGACUAGACGGCACCCACCUAAGGCAAACGGUAUGGUGAAGGCAUAGUCCAGGGAGUGGCGAAAGUCACACAAACCGG belongs 0.00761; to GUGCCUUGCGCCGGGAAACCACGCAAGGGAUGGUGUCAAAUUCGGCGAAACCUAAGCGCCCGCCCGGGCGUAUGGCAACGCGGAGCCAAGCUUCGGCGCCUGCGCCGAUGUAGGUGUAGUGACUAGACGGCACCCACCUAAGGCAAACGAUAUGGUGAAGGCAUAGUCUAGGGAGUGGCGAAAGUCACACAAACCGG, 0.00448.
On to GUGCCUUGCGCCGGGAAACCACGCAAGGGAUGGUGUCAAAUUCGGCGAAACCUAAGCGCCCGCCCGGGCGUAUGGCAACGCGGAGCCAAGCUUCGGCGCCUGCGCCGAUGUAGGUGUAGUGACUAGACGGCACCCACCUAAGGCAAACGAUAUGGUGAAGGCAUAGUCGAGGGAGUGGCGAAAGUCACACAAACCGG, for which the reverse-splicing fitness turned out to be 0.00506.
To GUGCCUUGCGCCGGGAAACCACGCAAGGGAUGGUGUCAAAUUCGGCGAAACCUAAGCGCCCGCCCGGGCGUAUGGCAACGCGGAGCCAAGCUUCGGCGCCUGCGCCGAUGUAGGUGUAGUGACUAGACGGCACCCACCUAAGGCAAACGAUAUGGUGAAGGCAUAGUCAAGGGAGUGGCGAAAGUCACACAAACCGG belongs 0.0047; to GUGCCUUGCGCCGGGAAACCACGCAAGGGAUGGUGUCAAAUUCGGCGAAACCUAAGCGCCCGCCCGGGCGUAUGGCAACGCGGAGCCAAGCUUCGGCGCCUGCGCCGAUGUAGGUGUAGUGACUAGACGGCACCCACCUAAGGCAAACGAUAUGGUGAAGGCAUAGUCAAGGGAGGGGCGAAAGUCACACAAACCGG, 0.00233.
To GUGCCUUGCGCCGGGAAACCACGCAAGGGAUGGUGUCAAAUUCGGCGAAACCUAAGCGCCCGCCCGGGCGUAUGGCAACGCGGAGCCAAGCUUCGGCGCCUGCGCCGAUGUAGGUGUAGUGACUAGACGGCACCCACCUAAGGCAAACGAUAUGGUGAAGGCAUAGUCAAGGGAGCGGCGAAAGUCACACAAACCGG belongs 0.00429.
To GUGCCUUGCGCCGGGAAACCACGCAAGGGAUGGUGUCAAAUUCGGCGAAACCUAAGCGCCCGCCCGGGCGUAUGGCAACGCGGAGCCAAGCUUCGGCGCCUGCGCCGAUGUAGGUGUAGUGACUAGACGGCACCCACCUAAGGCAAACGAUAUGGUGAAGGCAUAGUCAAGGGAGAGGCGAAAGUCACACAAACCGG belongs 0.00677.
For the variant GUGCCUUGCGCCGGGAAACCACGCAAGGGAUGGUGUCAAAUUCGGCGAAACCUAAGCGCCCGCCCGGGCGUAUGGCAACGCGGAGCCAAGCUUCGGCGCCUGCGCCGAUGUAGGUGUAGUGACUAGACGGCACCCACCUAAGGCAAACGGUAUGGUGAAGGCAUAGUCGAGGGAGUGGCGAAAGUCACACAAACCGG, the reverse-splicing fitness was determined as 0.0064.
Regarding GUGCCUUGCGCCGGGAAACCACGCAAGGGAUGGUGUCAAAUUCGGCGAAACCUAAGCGCCCGCCCGGGCGUAUGGCAACGCGGAGCCAAGCUUCGGCGCCUGCGCCGAUGUAGGUGUAGUGACUAGACGGCACCCACCUAAGGCAAACGGUAUGGUGAAGGCAUAGUCAAGGGAGUGGCGAAAGUCACACAAACCGG, the reverse-splicing fitness turned out to be 0.00722.
GUGCCUUGCGCCGGGAAACCACGCAAGGGAUGGUGUCAAAUUCGGCGAAACCUAAGCGCCCGCCCGGGCGUAUGGCAACGCGGAGCCAAGCUUCGGCGCCUGCGCCGAUGUAGGUGUAGUGACUAGACGGCACCCACCUAAGGCAAACGGUAUGGUGAAGGCAUAGUCUAGGGAGUGGCGAAAGUCACACAAACCGG: the reverse-splicing fitness came out at 0.00549.

Values taken from the RNAGym collection of RNA variant scans (doi:10.1093/molbev/msab373).
